Source: patent publication US12534541B2, “Anti-PTK7 antibody and uses thereof” (MABCARE THERAPEUTICS, priority 2023, dated 2026)
Where two headings read alike, the source gives them in different places.

Key:
[1] = system: refractory ovarian cancer expressing PTK7, triple-negative breast cancer, and NSCLC; conditions: cited from earlier work
[2] = system: lung squamous cell carcinoma PDX LD1-0025-200615; experiment: In vivo anti-tumor activity against human lung squamous cell carcinoma PDX LD1-0025-200615; conditions: NU/NU mice, i.v. 5 mg/kg, once a week, 2 doses, vs negative control
Protocol: (§1) 6-week-old NU/NU mice, female, weighing 18-21 g, were purchased from Beijing Vital River Laboratory Animal Technology Co., Ltd. The mice were subcutaneously inoculated with lung squamous cell carcinoma tumor mass (specimen no. 200615, obtained from Xi'an LIDE Biotech Co. Ltd.). When the average tumor volume reached 150 mm^3, the antibody-drug conjugate Ab13-T1000-exatecan as prepared in Example 5 was administered intravenously at a dose of 10 mg/kg, the antibody-drug conjugate h6M24-vc0101 as prepared in Example 8 was administered intravenously at a dose of 5 mg/kg, and a negative control Vehicle group was set and administered intravenously with PBS at an equal dose, once a week for a total of 2 doses. After dosing, the tumor volume was measured twice a week using a vernier caliper and calculated according to the following formula: TV=(length*width^2)/2.

[3] = system: esophageal squamous cell carcinoma PDX LD1-2015-361318; experiment: In vivo anti-tumor activity against human esophageal squamous cell carcinoma PDX LD1-2015-361318; conditions: NU/NU mice, i.v. 5 mg/kg, once a week, 2 doses, vs negative control
Protocol: as §1, with “esophageal” for “lung”, “361318,” for “200615,”

[4] = system: small cell lung cancer PDX LD1-2025-362797; experiment: In vivo anti-tumor activity against human small cell lung cancer PDX LD1-2025-362797; conditions: NU/NU mice, i.v. 5 mg/kg, 1 dose, vs negative control
Protocol: 6-week-old NU/NU mice, female, weighing 18-21 g, were purchased from Beijing Vital River Laboratory Animal Technology Co., Ltd. The mice were subcutaneously inoculated with small cell lung cancer tumor mass (specimen no. 362797, obtained from Xi'an LIDE Biotech Co. Ltd.). When the average tumor volume reached 150 mm^3, the antibody-drug conjugates Ab13-T1000-exatecan and h6M24-T1000-exatecan as prepared in Example 5 were administered intravenously at a dose of 10 mg/kg, respectively, the antibody-drug conjugate h6M24-vc0101 as prepared in Example 8 was administered intravenously at a dose of 5 mg/kg, and a negative control Vehicle group was set and administered intravenously with PBS at an equal dose, once a week for a total of 1 dose. After dosing, the tumor volume was measured twice a week using a vernier caliper and calculated according to the following formula: TV=(length*width^2)/2.

[5] = system: cervical squamous cell carcinoma PDX LD1-0010-362343; experiment: In vivo anti-tumor activity against human cervical squamous cell carcinoma PDX LD1-0010-362343; conditions: NU/NU mice, i.v. 5 mg/kg, once a week, 2 doses, vs negative control
Protocol: as §1, with “cervical” for “lung”, “362343,” for “200615,”

[6] = system: triple-negative breast cancer PDX LD1-2009-361918; assay type: in vivo; conditions: NU/NU mice, i.v. 5 mg/kg, once a week, 2 doses, vs negative control
Protocol: 6-week-old NU/NU mice, female, weighing 18-21 g, were purchased from Beijing Vital River Laboratory Animal Technology Co., Ltd. The mice were subcutaneously inoculated with triple-negative breast cancer tumor mass (specimen no. 361918, obtained from Xi'an LIDE Biotech Co. Ltd.). […] After dosing, the tumor volume was measured twice a week using a vernier caliper and calculated according to the following formula: TV=(length*width^2)/2.

[7] = system: colorectal cancer PDX LD1-2038-361980; experiment: In vivo anti-tumor activity against human colorectal cancer PDX LD1-2038-361980; conditions: NU/NU mice, i.v. 5 mg/kg, once a week, 2 doses, vs negative control
Protocol: as §1, with “colorectal cancer” for “lung squamous cell carcinoma”, “361980,” for “200615,”

[8] = system: head and neck squamous cell carcinoma PDX LD1-0023-200615; experiment: In vivo anti-tumor activity against human head and neck squamous cell carcinoma PDX LD1-0023-200615; conditions: NU/NU mice, i.v. 5 mg/kg, once a week, 2 doses, vs negative control
Protocol: as §1, with “head and neck” for “lung”

B1: h6M24-vc0101: control drug: h6M24 (cofetuzumab) linked to Aur0101 via mc-VC-PAB linker, DAR about 4 (conjugate, chains of the INN, looked up)
VH: QVQLVQSGPEVKKPGASVKVSCKASGYTFTDYAVHWVRQAPGKRLEWIGVISTYNDYTYNNQDFKGRVTMTRDTSASTAYMELSRLRSEDTAVYYCARGNSYFYALDYWGQGTSVTVSS
VL: EIVLTQSPATLSLSPGERATLSCRASESVDSYGKSFMHWYQQKPGQAPRLLIYRASNLESGIPARFSGSGSGTDFTLTISSLEPEDFAVYYCQQSNEDPWTFGGGTKLEIK
modifications: Aur0101 via mc-VC-PAB linker, DAR 4
dose-limiting toxicity ([1]; highest dose assessed every 3 weeks): Two patients experienced a dose-limiting toxicity (grade 3 headache and fatigue)
objective response rate (ORR) ([1]; patients with NSCLC (6/31 patients)): 19%
objective response rate (ORR) ([1]; patients with refractory ovarian cancer expressing PTK7 (17/63 patients)): 27%
objective response rate (ORR) ([1]; patients with triple-negative breast cancer (6/29 patients)): 21%
tumor growth inhibition (tumor volume over time) [2]: partially inhibit tumor growth
tumor growth inhibition (tumor volume over time) [3]: partially inhibit tumor growth
tumor growth inhibition (tumor volume over time) [4]: does not produce any tumor growth inhibitory effect
tumor growth inhibition (tumor volume over time) [5]: significantly inhibit tumor growth
tumor growth inhibition (tumor volume over time) [6]: does not produce any tumor growth inhibitory effect
tumor growth inhibition (tumor volume over time) [7]: does not produce any tumor growth inhibitory effect
tumor growth inhibition (tumor volume over time) [8]: significantly inhibit tumor growth
